Experimental data from PMC9256709.

Biological target: AGL6 fused to YFP or CFP (Arabidopsis thaliana) (UniProt P29386)
Experiment: FRET or BRET; in vivo FRET on the FYL1-AGL6-AGL6-AGL15 tetramer: one CFP and one YFP fusion co-expressed with the unlabeled other members in tobacco leaf cells; steady-state FRET efficiency in nuclei

Sequence of UniProt P29386 (P29386 whole entry, the tested form may be a part): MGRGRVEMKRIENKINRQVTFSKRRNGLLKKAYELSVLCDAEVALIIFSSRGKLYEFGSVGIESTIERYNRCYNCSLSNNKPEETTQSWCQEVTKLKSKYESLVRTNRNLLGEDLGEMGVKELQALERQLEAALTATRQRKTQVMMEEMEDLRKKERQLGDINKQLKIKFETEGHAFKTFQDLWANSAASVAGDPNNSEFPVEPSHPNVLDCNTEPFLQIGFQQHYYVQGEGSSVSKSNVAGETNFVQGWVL

FRET efficiency (AGL6:CFP/FYL1:YFP, unlabeled AGL15 co-expressed): 32%
Substance: FYF-like 1 (FYL1/AGL71) fused to CFP or YFP (from UniProt Q9LT93 1-207) (natural protein)
